Experimental data taken from publication PMC11730611.

T1: extROQ (Roquin, murine/human) (Mus musculus, UniProt Q4VGL6 89-404)
T1 sequence: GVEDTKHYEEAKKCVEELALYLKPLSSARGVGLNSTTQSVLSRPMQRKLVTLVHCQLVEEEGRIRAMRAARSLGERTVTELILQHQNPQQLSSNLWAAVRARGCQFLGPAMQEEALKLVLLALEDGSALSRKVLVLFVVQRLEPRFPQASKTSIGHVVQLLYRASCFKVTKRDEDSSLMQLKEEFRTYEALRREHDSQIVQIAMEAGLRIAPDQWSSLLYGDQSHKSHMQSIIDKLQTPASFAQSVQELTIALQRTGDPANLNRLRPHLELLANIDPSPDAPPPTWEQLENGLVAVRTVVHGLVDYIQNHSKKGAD

T2: coreROQ (Roquin, murine/human) (Mus musculus, UniProt Q4VGL6 171-326)
T2 sequence: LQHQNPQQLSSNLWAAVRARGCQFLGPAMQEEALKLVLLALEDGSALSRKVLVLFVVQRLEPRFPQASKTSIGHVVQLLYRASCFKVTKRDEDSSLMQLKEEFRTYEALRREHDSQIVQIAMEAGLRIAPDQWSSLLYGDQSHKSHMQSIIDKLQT


Key:
Assay in all cases: EMSA
[1] = biological target: T1, extROQ (Roquin, murine/human)
[2] = biological target: T2, coreROQ (Roquin, murine/human)
[3] = biological target: T2, coreROQ (Roquin, murine/human); remark: listed apart in the source

Binder	Kd [1] [nM]	Kd [2] [nM]	binding result [3]
GCCUGCCAGUCCACACCGUUCUAGGUGCUGGGCUGGCUCUGGGC (structured_RNA) [delta-bulge]	479 ± 188	299 ± 41.6	
GCCCUGUGCCGUUUUAGGCGCUCCUGGGC (structured_RNA) [DK (dolphin/killer whale Ox40 ADE)]	847 ± 77.4	480 ± 24.7	
GCCGAGCCUGAGUUUAUACAGUCCUUUGUGC (structured_RNA) [CH (chicken putative ADE)]	4460 ± 717		
GCCUGCCAGUACCCUCCAUAAAGUUCUAUUUACUGGGCUGGCUCUGGGC (structured_RNA) [dapical]	488 ± 373		no binding
GGCGAACAGUGCAGCGUUCUAGCUGCCCUUCGCU (structured_RNA) [HS low pur.]	673 ± 65.2	432 ± 62.6	
GCCUGUAAGUACCCUCCACACCGUUCUAGGUGCUGGGCUUACUCUGGGC (structured_RNA) [dstem1]	1040 ± 139	381 ± 94.8	
GCCUGUAAGUACCCUCUACACCGUUCUAGGUGCUAGGCUUACUCUGGGC (structured_RNA) [dstem2]	978 ± 76.9	451 ± 46.9	
GCCUGCCAGUACCCUCCACACCGUUCUAGGUGCUGGGCUGGCUCUGGGC (structured_RNA) [MM (murine Ox40 ADE wt)]	323 ± 139	308 ± 57.2	
GGUGUGUUUAUUUCAGGAGACA (structured_RNA) [LI (lizard putative ADE)]	1840 ± 403		
GCACCCUCCCACACCGUUUUAGGUGUUCUGGGUG (structured_RNA) [HE (hedgehog Ox40 ADE)]	642 ± 119	318 ± 17.2	
GCCUGCCAGUCCACACCGUUCUAGGUGCUGGACCCUGCUGGCUCUGGGC (structured_RNA) [MM 3'bulge]	525 ± 60.1	241 ± 15.6	
GGCCAUCUGCACCGUUCUAGGUGCCGAACUGGCU (structured_RNA) [HS 3'bulge]	475 ± 62.6	293 ± 149	
GUCCCCUCUGCGCCGUUUUAGGCGUUUCUGGGCUGGC (structured_RNA) [EL (elephant Ox40 ADE)]	778 ± 157	534 ± 366	
GGCCAGGACGCAGUAUUACUCUCGGGUC (structured_RNA) [OP (opossum ADE-like)]			no binding
GGCCAACUCUGCACCGUUCUAGGUGCCGAUGGCU (structured_RNA) [HS (human Ox40 ADE wt)]	386 ± 63.7	295 ± 29.6	
